From publication PMC7356834

Tests used:
[1] = tested on: T1, APASM_1021 (AdpA-like protein) (Actinosynnema pretiosum ATCC 31280), ORF:1b9350d8; assay: competition; settings: 10 mM Tris-HCl pH 7.5, 1 mM EDTA, 100 mM KCl, 5% glycerol, 0.1 DTT (unit not given), 0.01 mg/mL BSA; 30 min at 30 C; 10% native PAGE at 4 C
T1 sequence: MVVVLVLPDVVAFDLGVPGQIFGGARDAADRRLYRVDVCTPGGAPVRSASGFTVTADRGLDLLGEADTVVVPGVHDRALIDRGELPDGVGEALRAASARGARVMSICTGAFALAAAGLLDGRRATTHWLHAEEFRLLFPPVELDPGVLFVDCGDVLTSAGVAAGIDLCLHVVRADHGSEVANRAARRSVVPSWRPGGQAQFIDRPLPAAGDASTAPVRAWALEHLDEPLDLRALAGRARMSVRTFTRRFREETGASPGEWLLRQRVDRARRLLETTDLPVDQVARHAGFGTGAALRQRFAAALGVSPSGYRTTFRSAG

[2] = tested on: T1, APASM_1021 (AdpA-like protein) (Actinosynnema pretiosum ATCC 31280), ORF:1b9350d8; assay: EMSA; settings: 10 mM Tris-HCl pH 7.5, 1 mM EDTA, 100 mM KCl, 5% glycerol, 0.1 DTT (unit not given), 0.01 mg/mL BSA; 30 min at 30 C; 10% native PAGE at 4 C

Row | Sequence | binding [1] | binding [2]
1 | TGGAGCCGCTGACGGGGAGCCATCGACGGGAAGCCGCTGACCGGCCTCTCCGCGCCGCCACGCGGGCGCCGCACCTGAACCAGGTGCGGCGCCCGCGTGGTCGCGCCCTTTGACCCCGCCCCCGTTCCCCT (double strand) [P4178 unlabeled competitor] | binds | –
2 | TGGAGCCGCTGACGGGGAGCCATCGACGGGAAGCCGCTGACCGGCCTCTCCGCGCCGCCACGCGGGCGCCGCACCTGAACCAGGTGCGGCGCCCGCGTGGTCGCGCCCTTTGACCCCGCCCCCGTTCCCCT (double strand) [P4178] | – | binds
